From patent US20240116985A1, “STAPLED PEPTIDES AND METHODS THEREOF” (priority 2020, published 2024)
Starred links: 1 amine or outer side, 2 acyl side, 3 side chain; linkers in the order of their positions; H or OH if unused. Positions of bridges follow the written chain, without caps; N, C: chain ends. Non-standard residues stand in square brackets, D forms with d. Primed or numbered codes have the meaning given here. PyrS2″ = (S)-3-amino-1-((pent-4-en-1-yloxy)carbonyl)pyrrolidine-3-carboxylic acid (stapling residue), C=CCCCOC(=O)N1CC[C@@](N[*:1])(C(=O)[*:2])C1; B5(18) = 2,2-bis(4-pentenyl)glycine (2-amino-2-(pent-4-en-1-yl)hept-6-enoic acid), stitching residue, C=CCCCC(CCCC=C)(N[*:1])C(=O)[*:2]; B5(4) = 2,2-bis(4-pentenyl)glycine = 2-amino-2-(pent-4-en-1-yl)hept-6-enoic acid (stitching residue), C=CCCCC(CCCC=C)(N[*:1])C(=O)[*:2]; B5(5) = 2,2-bis(4-pentenyl)glycine, 2-amino-2-(pent-4-en-1-yl)hept-6-enoic acid (stitching residue), C=CCCCC(CCCC=C)(N[*:1])C(=O)[*:2]; TfeGA = (S)-2-amino-3-((carboxymethyl)(2,2,2-trifluoroethyl)amino)propanoic acid, O=C([C@H](CN(CC(=O)[*:3])CC(F)(F)F)N[*:1])[*:2]; B5(3) = 2,2-bis(4-pentenyl)glycine (stitching residue), C=CCCCC(CCCC=C)(N[*:1])C(=O)[*:2]; Phe(3-COOH) = N[C@@H](Cc1cccc(C(=O)O)c1)C(=O)O; Phe(2-Cl) = N[C@@H](Cc1ccccc1Cl)C(=O)O; Bta = N[C@@H](Cc1csc2ccccc12)C(=O)O; αAllylPro = C=CC[C@@]1(C(=O)O)CCCN1; tBuAla = CC(C)(C)C[C@H](N)C(=O)O; 3Thi = N[C@@H](Cc1ccsc1)C(=O)O

target: full-length beta-Catenin (Uniprot ID P35222) (Homo sapiens (Human)) (UniProt P35222); assay: fluorescence polarization competition; 10 nM full-length beta-catenin + 10 nM 5FAM-TCF4(10-53) probe
Target sequence in this assay (P35222 whole entry): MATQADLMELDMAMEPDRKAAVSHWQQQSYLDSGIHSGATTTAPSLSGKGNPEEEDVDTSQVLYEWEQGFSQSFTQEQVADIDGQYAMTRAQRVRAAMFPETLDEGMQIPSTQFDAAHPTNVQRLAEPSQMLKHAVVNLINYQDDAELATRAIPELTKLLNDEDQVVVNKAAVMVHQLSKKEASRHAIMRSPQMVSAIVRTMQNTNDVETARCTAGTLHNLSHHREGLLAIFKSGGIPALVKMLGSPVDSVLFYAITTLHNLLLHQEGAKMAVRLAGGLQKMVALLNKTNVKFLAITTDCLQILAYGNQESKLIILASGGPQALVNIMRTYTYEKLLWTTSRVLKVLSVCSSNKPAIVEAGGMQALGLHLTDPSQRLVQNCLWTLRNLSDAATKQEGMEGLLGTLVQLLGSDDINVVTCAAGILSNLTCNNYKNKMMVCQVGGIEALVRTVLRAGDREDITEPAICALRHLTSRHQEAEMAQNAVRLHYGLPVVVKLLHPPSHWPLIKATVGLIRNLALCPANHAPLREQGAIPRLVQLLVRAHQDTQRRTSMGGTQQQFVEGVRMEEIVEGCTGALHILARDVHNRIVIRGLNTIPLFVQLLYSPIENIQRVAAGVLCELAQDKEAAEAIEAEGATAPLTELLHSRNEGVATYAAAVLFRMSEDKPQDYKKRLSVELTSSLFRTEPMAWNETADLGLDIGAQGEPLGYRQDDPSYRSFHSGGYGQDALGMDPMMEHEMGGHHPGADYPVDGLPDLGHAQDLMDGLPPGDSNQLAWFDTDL

Ac-[αAllylPro]D[tBuAla][B5(5)]D[TfeGA]AFFN[PyrS2″][Phe(2-Cl)][Bta]Q-NH2 (staple 1-4, 4-11) [I-1003] and Ac-[αAllylPro]D[tBuAla][B5(5)]D[TfeGA]AIFN[PyrS2″][Phe(2-Cl)][Bta]Q-NH2 (staple 1-4, 4-11) [I-1005] are within 1.5-fold of each other in IC50: 38 nM for the first, 42 nM for the second.

First: Ac-[αAllylPro]D[tBuAla][B5(5)]D[TfeGA]AKFN[PyrS2″][Phe(2-Cl)][Bta]Q-NH2 (staple 1-4, 4-11) [I-1006]
Second: Ac-[αAllylPro]D[tBuAla][B5(5)]DDAAFT[PyrS2″][Phe(2-Cl)][Bta]Q-NH2 (staple 1-4, 4-11) [I-1013]
The IC50 of the first is 1.6-fold lower: 5 nM for the first, 8 nM for the second. The first is the more potent here.

Ac-[αAllylPro]D[tBuAla][B5(5)]DNAAFT[PyrS2″][Phe(2-Cl)][Bta]Q-NH2 (staple 1-4, 4-11) [I-1014] and Ac-[αAllylPro]D[tBuAla][B5(5)]DNAAFS[PyrS2″][Phe(2-Cl)][Bta]Q-NH2 (staple 1-4, 4-11) [I-1018] are within 1.5-fold of each other in IC50: 19 nM for the first, 26 nM for the second.

target: full-length beta-Catenin (Uniprot ID P35222) (Homo sapiens (Human)) (UniProt P35222); assay: fluorescence polarization competition; full-length beta-catenin, competitor probe 5FAM-TCF4(10-53)
Target sequence in this assay (P35222 2-781 limits assumed): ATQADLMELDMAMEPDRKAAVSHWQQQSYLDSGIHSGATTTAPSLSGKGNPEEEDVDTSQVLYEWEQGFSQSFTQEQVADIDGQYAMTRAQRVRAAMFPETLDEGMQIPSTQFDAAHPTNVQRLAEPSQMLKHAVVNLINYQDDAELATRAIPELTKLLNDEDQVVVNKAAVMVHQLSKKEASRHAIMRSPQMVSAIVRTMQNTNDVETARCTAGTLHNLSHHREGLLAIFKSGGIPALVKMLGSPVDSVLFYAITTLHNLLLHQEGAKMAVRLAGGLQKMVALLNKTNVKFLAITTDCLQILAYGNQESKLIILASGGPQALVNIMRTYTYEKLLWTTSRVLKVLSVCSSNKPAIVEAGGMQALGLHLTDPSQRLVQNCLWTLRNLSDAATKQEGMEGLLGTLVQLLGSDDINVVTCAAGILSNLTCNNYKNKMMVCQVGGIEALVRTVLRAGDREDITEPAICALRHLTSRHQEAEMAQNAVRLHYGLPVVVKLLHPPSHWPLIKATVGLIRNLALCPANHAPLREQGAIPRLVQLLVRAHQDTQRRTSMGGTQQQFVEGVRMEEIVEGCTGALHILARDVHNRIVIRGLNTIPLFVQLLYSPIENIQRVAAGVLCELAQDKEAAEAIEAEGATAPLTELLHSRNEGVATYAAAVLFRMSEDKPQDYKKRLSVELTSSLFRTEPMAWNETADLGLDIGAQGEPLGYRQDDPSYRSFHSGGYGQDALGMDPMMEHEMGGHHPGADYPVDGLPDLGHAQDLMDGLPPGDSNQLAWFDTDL

First: Ac-[αAllylPro]D[tBuAla][B5(4)]D[Phe(3-COOH)]AAFS[PyrS2″][3Thi][Bta]Q-NH2 (staple 1-4, 4-11; also: earlier eluting HPLC staple isomer) [I-978]
Second: Ac-[αAllylPro]D[tBuAla][B5(4)]D[Phe(3-COOH)]AAFS[PyrS2″][3Thi][Bta]Q-NH2 (staple 1-4, 4-11; also: later eluting HPLC staple isomer) [I-979]
The IC50 of the first is 2.1-fold lower: 112 nM for the first, 240 nM for the second.

Going from Ac-[αAllylPro]D[tBuAla][B5(4)]D[Phe(3-COOH)]AAFT[PyrS2″][3Thi][Bta]Q-NH2 (staple 1-4, 4-11; also: earlier eluting HPLC staple isomer) [I-980] to Ac-[αAllylPro]D[tBuAla][B5(4)]D[Phe(3-COOH)]AAFT[PyrS2″][3Thi][Bta]Q-NH2 (staple 1-4, 4-11; also: later eluting HPLC staple isomer) [I-981], the IC50 rises from 221 nM to 374 nM (1.7-fold). The first is the more potent here.

First: Ac-[αAllylPro]D[tBuAla][B5(4)]D[Phe(3-COOH)]AAFF[PyrS2″][3Thi][Bta]S-NH2 (staple 1-4, 4-11; also: earlier eluting HPLC staple isomer) [I-982]
Second: Ac-[αAllylPro]D[tBuAla][B5(3)]D[Phe(3-COOH)]AAFF[PyrS2″][3Thi][Bta]S-NH2 (staple 1-4, 4-11; also: later eluting HPLC peak (staple isomer)) [I-983]
The IC50 of the first is 1.6-fold higher: 190 nM for the first, 118 nM for the second. The second is the more potent here.

Going from Ac-[αAllylPro]D[tBuAla][B5(3)]D[Phe(3-COOH)]AAFS[PyrS2″][3Thi][Bta]S-NH2 (staple 1-4, 4-11; also: earlier eluting HPLC peak (staple isomer)) [I-984] to Ac-[αAllylPro]D[tBuAla][B5(3)]D[Phe(3-COOH)]AAFS[PyrS2″][3Thi][Bta]S-NH2 (staple 1-4, 4-11; also: later eluting HPLC peak (staple isomer)) [I-985], the IC50 rises from 179 nM to 430 nM (2.4-fold).

Work on Ac-[αAllylPro]D[tBuAla][B5(3)]D[TfeGA]AAFF[PyrS2″]Y[Bta]Q-NH2 (staple 1-4, 4-11) [I-989] yielded an IC50 of 87 nM.

target: full-length beta-Catenin (Uniprot ID P35222) (Homo sapiens (Human)) (UniProt P35222); assay: fluorescence polarization competition; full-length beta-catenin with 5FAM-labeled TCF4 (10-53) probe as competitor
Target sequence in this assay (P35222 whole entry): as the sequence (P35222 whole entry) above

Compared with Ac-[αAllylPro]D[tBuAla][B5(4)]D[Phe(3-COOH)]AAFS[PyrS2″][3Thi][Bta]Q-NH2 (staple 1-4, 4-11; also: earlier eluting HPLC staple isomer) [I-978], Ac-[αAllylPro]D[tBuAla][B5(4)]D[Phe(3-COOH)]AAFS[PyrS2″][3Thi][Bta]Q-NH2 (staple 1-4, 4-11; also: later eluting HPLC staple isomer) [I-979] is 2.1-fold higher in EC50: 112 nM for the first, 240 nM for the second.

Ac-[αAllylPro]D[tBuAla][B5(4)]D[Phe(3-COOH)]AAFT[PyrS2″][3Thi][Bta]Q-NH2 (staple 1-4, 4-11; also: earlier eluting HPLC staple isomer) [I-980] and Ac-[αAllylPro]D[tBuAla][B5(4)]D[Phe(3-COOH)]AAFT[PyrS2″][3Thi][Bta]Q-NH2 (staple 1-4, 4-11; also: later eluting HPLC staple isomer) [I-981] are within 1.5-fold of each other in EC50: 221 nM for the first, 199 nM for the second.

Going from Ac-[αAllylPro]D[tBuAla][B5(4)]D[Phe(3-COOH)]AAFF[PyrS2″][3Thi][Bta]S-NH2 (staple 1-4, 4-11; also: earlier eluting HPLC staple isomer) [I-982] to Ac-[αAllylPro]D[tBuAla][B5(3)]D[Phe(3-COOH)]AAFF[PyrS2″][3Thi][Bta]S-NH2 (staple 1-4, 4-11; also: later eluting HPLC peak (staple isomer)) [I-983], the EC50 falls from 190 nM to 118 nM (1.6-fold). The second is the more potent here.

Going from Ac-[αAllylPro]D[tBuAla][B5(3)]D[Phe(3-COOH)]AAFS[PyrS2″][3Thi][Bta]S-NH2 (staple 1-4, 4-11; also: earlier eluting HPLC peak (staple isomer)) [I-984] to Ac-[αAllylPro]D[tBuAla][B5(3)]D[Phe(3-COOH)]AAFS[PyrS2″][3Thi][Bta]S-NH2 (staple 1-4, 4-11; also: later eluting HPLC peak (staple isomer)) [I-985], the EC50 rises from 179 nM to 301 nM (1.7-fold).

Ac-[αAllylPro]D[tBuAla][B5(3)]D[TfeGA]AAFF[PyrS2″]Y[Bta]Q-NH2 (staple 1-4, 4-11) [I-989] gave an EC50 of 87 nM.

target: full-length beta-Catenin (Uniprot ID P35222) (Homo sapiens (Human)) (UniProt P35222); assay: fluorescence polarization competition; displaces 5FAM-TCF4(10-53) from full-length beta-catenin
Target sequence in this assay (P35222 2-781 limits assumed): as the sequence (P35222 2-781 limits assumed) above

Ac-[αAllylPro]D[tBuAla][B5(5)]D[TfeGA]AFFN[PyrS2″][Phe(2-Cl)][Bta]Q-NH2 (staple 1-4, 4-11) [I-1003] and Ac-[αAllylPro]D[tBuAla][B5(5)]D[TfeGA]AIFN[PyrS2″][Phe(2-Cl)][Bta]Q-NH2 (staple 1-4, 4-11) [I-1005] are within 1.5-fold of each other in EC50: 38 nM for the first, 42 nM for the second.

Compared with Ac-[αAllylPro]D[tBuAla][B5(5)]D[TfeGA]AKFN[PyrS2″][Phe(2-Cl)][Bta]Q-NH2 (staple 1-4, 4-11) [I-1006], Ac-[αAllylPro]D[tBuAla][B5(5)]DDAAFT[PyrS2″][Phe(2-Cl)][Bta]Q-NH2 (staple 1-4, 4-11) [I-1013] is 1.6-fold higher in EC50: 5 nM for the first, 8 nM for the second. The first is the more potent here.

Ac-[αAllylPro]D[tBuAla][B5(5)]DNAAFT[PyrS2″][Phe(2-Cl)][Bta]Q-NH2 (staple 1-4, 4-11) [I-1014] and Ac-[αAllylPro]D[tBuAla][B5(5)]DNAAFS[PyrS2″][Phe(2-Cl)][Bta]Q-NH2 (staple 1-4, 4-11) [I-1018] are within 1.5-fold of each other in EC50: 19 nM for the first, 26 nM for the second.
